In patent US20200331998A1 (ALLOGENE THERAPEUTICS, published 2020):
Residue numbers refer to the chain shown, from its start.

How the values were obtained:
[1] = biological target: T1, m4G7 hFab 8×His (human); assay: SPR (Biacore, 25° C.), biotinylated antibody captured on CAP chip, m4G7-hFab as analyte
T1 construct: Immunogen and Biacore analyte; also called 4G7-human Fab-8×His fusion protein (E2153); m4G7-Fab; not shown: It lies between the VH and the 8xHis tag and is left out
Method: (§1) Anti-m4G7 purified sub-clone antibodies were tested for binding to m4G7-hFab. Blocking effect was determined using a sandwich assay and binding confirmation to […] was determined using a Biacore assay at 25° C. […] Sensor chip CAP (CAPture chip) #505 was used as a surface. After rehydrating the sensor chip CAP with water at 42° C. for 1 hour, the chip was dried with compressed air. The surface of the chip was conditioned using triplicate 1 min injections of regeneration solution at 10 μl/min. The regeneration solution included 3 parts of Regeneration Stock 1 (8 M guanidine-HCl) with 1 part Regeneration Stock 2 (1 M NaOH). Capture of Biotin CAPture reagent for 5 min at 2 μl/min was followed by capture of biotinylated Fusion E2153 anti-m4G7 purified sub-clones antibodies and control antibodies at 10 μg/ml for 1 min at 10 μl/min.
(§2) For the kinetics assay, the buffer and m4G7-hFab at 1 nM, 10 nM, and 100 nM were injected for 2 min at 30 μL/min followed by 5 min dissociation.

[2] = biological target: T2, hCD19-HIS-AVI (human, UniProt P15391 20-291, limits assumed); assay: SPR (Biacore, 25° C.) sandwich assay with buffer/hCD19 injections
T2 construct: not shown: His and Avi tags
T2 sequence (looked up): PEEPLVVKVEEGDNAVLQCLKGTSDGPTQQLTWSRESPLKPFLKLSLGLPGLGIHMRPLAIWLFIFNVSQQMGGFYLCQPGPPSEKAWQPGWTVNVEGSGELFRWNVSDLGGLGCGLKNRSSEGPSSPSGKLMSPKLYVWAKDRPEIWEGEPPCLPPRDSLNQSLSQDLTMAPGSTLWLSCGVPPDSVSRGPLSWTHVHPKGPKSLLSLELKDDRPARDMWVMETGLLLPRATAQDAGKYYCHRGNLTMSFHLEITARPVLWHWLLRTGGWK
Method: as §1
The blocking effect of m4G7-hFab binding to hCD19 by the purified anti-Ids sub-clones from Fusion E2153 was determined by the sandwich assay at 25° C. Sample 1 was injected for 2 min at 30 μL/min followed by 10 sec in buffer then Sample 2 was injected for 2 min at 30 μL/min followed by 3 min dissociation: […]

[3] = biological target: T1, m4G7 hFab 8×His; assay: Biacore SPR at 25 °C, biotinylated antibody captured on CAP chip, m4G7-hFab injected, 1:1 Binding fit printed under the sensorgram; the text (Table 3) calls this clone very high affinity, outside instrument limits
Method: as §1, §2

T1 sequence (VH, as listed by the source limits assumed, chain 1 of 2): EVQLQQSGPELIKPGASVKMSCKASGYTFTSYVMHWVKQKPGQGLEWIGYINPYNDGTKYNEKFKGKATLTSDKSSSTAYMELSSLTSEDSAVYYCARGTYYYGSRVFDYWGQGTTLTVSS
T1 sequence (VL, as listed by the source limits assumed, chain 2 of 2): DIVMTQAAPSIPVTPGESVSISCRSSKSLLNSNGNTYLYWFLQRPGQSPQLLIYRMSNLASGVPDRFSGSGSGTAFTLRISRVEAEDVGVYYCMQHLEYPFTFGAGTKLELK

B1: E2153.2H8.A8 (antibody, V domains shown)
VH: QVQLQQSGAELVKPGASVKVSCKAFGYTFTTYPIEWMRQNHGKSLEWIGNFHPYNDDTRYNEKFKDKAKLTVEKSSSTVYLELSRLTYDDSAVYYCTRGNDYDLYGMDYWGQGTSVTVSS
VL: DIKMTQSPSSMYASLGERVTITCKASQDINTYLTWFQQKPGKSPKTLIYRANRLVDGVPSRFSGSGSGQDYSLTISSLEYEDMGIYYCLQCDDFPLTFGAGTKLELKR
notes: Mouse IgG1/kappa hybridoma antibody; Biotinylated for the Biacore assays; also called Clone A8; anti-UCART19 idiotype antibody A8
- Kd [1]: 0.0144 nM
- koff [1]: 0.000106 s⁻¹
- kon [1]: 7.35e+06 M⁻¹ s⁻¹
- t1/2 [1]: 1.82 h
- binding result [2]: no binding (tested: 300 nM)

B2: E2153.4D7.E11 (antibody, V domains shown)
VH: QVQLQQSGAELVRPGTSVKVSCKASGYAFTNYLIEWVKQRPGQGLEWIGVITPGSGGSNYNEKFKGKATLTADKSSSTAYMQLSSLTSDDSAVYFCARWLDYDWFAYWGQGTLVTVSA
VL: DIKMTQSPSSMYASLGERVTITCKASQDINSYLSWFQQKPGKSPKTLIYRANRLVDGVPSRFSGSGSGQDYSLTISSLEYEDMGIYYCRQCDEFPSTFGGGTKLEIK
notes: Mouse hybridoma antibody; Biotinylated for the Biacore assays; PE-labelled in flow cytometry; also called Clone E11
- Kd [3]: 0.00936 nM
- koff [3]: 3.65e-05 s⁻¹
- kon [3]: 3.9e+06 M⁻¹ s⁻¹
- binding result [2]: no binding (tested: 300 nM)

B3: E2153.1C4.E2 (antibody, V domains shown)
VH: B1 VH
VL: B2 VL with S7F, S31T, S34T, R89L, E93D, S96L, G100A, I106L
notes: Mouse hybridoma antibody; Biotinylated for the Biacore assays; also called Clone E2
- Kd [1]: 0.0167 nM
- koff [1]: 0.000128 s⁻¹
- kon [1]: 7.65e+06 M⁻¹ s⁻¹
- t1/2 [1]: 1.5 h
- binding result [2]: no binding (tested: 300 nM)

B4: E2153.1D9.B4 (antibody, V domains shown)
VH: B2 VH with V37I, T52N, S58I, A72S
VL: B2 VL with S7F, L15V, R89L, S96F
notes: Mouse hybridoma antibody; Biotinylated for the Biacore assays; also called Clone B4
- Kd [3]: 0.00489 nM
- koff [3]: 1.58e-05 s⁻¹
- kon [3]: 3.22e+06 M⁻¹ s⁻¹
- binding result [2]: no binding (tested: 300 nM)
